We go through six molecules from article PMC6650482, “Tyrosine 51 residue of the syndecan-2 extracellular domain is involved in the interaction with and activation of pro-matrix metalloproteinase-7” (Scientific Reports, 2019).

Positions count from the first letter of the chain named. Numbers in names are those of the source. Entries after “also recorded” stand apart in the source; their conditions may differ.

Series [1] has as its system N-terminus of the extracellular domain of syndecan-2. Kind of series: In vitro binding of MMP-7 α2–3 helix with N-terminus of the syndecan-2 extracellular domain. Set-up: species or system human. As to conditions: His-tagged α2–3, GST-SDC2 mutants, anti-His immunoblot. How it is done: (§1) Figure 4 The α2–3 helix of the MMP-7 pro-domain is involved in its interaction with the syndecan-2 extracellular domain. (A) Structure of the MMP-7 pro-domain (PDB; 2MZE) and schematic diagram of the MMP-7 pro-domain (PD) and its deletion mutants. The indicated MMP-7 pro-domain mutants were purified with Ni-NTA agarose beads, separated by SDS-PAGE. Purified MMP-7 pro-domain mutants were incubated with GST-SDC-2. Materials bound to glutathione-agarose beads were immunoblotted with an anti-His tag antibody and the membranes were stripped and re-probed with an anti-GST antibody. Image is of a single membrane cropped to remove intervening lanes. (B) Purified GST-SDC2 mutants were incubated with His-tagged α2–3 helix of the MMP-7 pro-domain. Materials bound to glutathione-agarose beads were immunoblotted with an anti-His tag antibody (top) and the membranes were then stripped and re-probed with an anti-GST antibody (bottom). (C) The secondary structure of the α2–3 helix of the MMP-7 pro-domain was analyzed using CD in the presence of different concentrations of TFE (top). Quantitative estimations of the secondary-structure content were made with the CDPro software package, which includes the programs CDSSTR, CONTIN, and SELCON3. […] Smaller values of NRMSD indicate closer correspondence between calculated structures and the experimental data.

Series [2] relates to GST-SDC-2. Kind of series: In vitro binding of MMP-7 pro-domain fragments to GST-SDC2. Set-up: species or system human. As to conditions: GST-SDC-2, glutathione-agarose beads, anti-His immunoblot. As to the method: as §1
(In general: Immunoblotting shows a protein as a band on a membrane.)

The nature of series [3]: Circular dichroism secondary structure. The series is classed as physicochemical. As to the method: Figure 2 The pro-domain of MMP-7 is involved in its interaction with the syndecan-2 extracellular domain. (A) Schematic representations of the pro-domain of MMP-7 (PD) and the deletion mutants lacking the pro-domain, N-terminus (ΔN), C-terminus (ΔC) and both N- and C-terminus (ΔNC) (top). His-tagged MMP-7 pro-domain was purified with Ni-NTA agarose beads, separated by SDS-PAGE and stained with Coomassie Blue (bottom). (B) Purified GST-S2E, S2E-C and S2E-NII were incubated with His-tagged PD, or ΔN, ΔC or ΔNC MMP-7 pro-domain. Materials bound to glutathione-agarose beads were immunoblotted with an anti-His tag antibody (top). The membranes were then stripped and re-probed with an anti-GST antibody (bottom). […] Absorbance was measured at 450 nm. […]
Figure 4 The α2–3 helix of the MMP-7 pro-domain is involved in its interaction with the syndecan-2 extracellular domain. […] (C) The secondary structure of the α2–3 helix of the MMP-7 pro-domain was analyzed using CD in the presence of different concentrations of TFE (top). Quantitative estimations of the secondary-structure content were made with the CDPro software package, which includes the programs CDSSTR, CONTIN, and SELCON3. […] Smaller values of NRMSD indicate closer correspondence between calculated structures and the experimental data. […]
(Circular dichroism is the unequal absorption of left and right circularly polarised light.)

In series [4] the target is T1, His-tagged pro-domain of MMP-7 (His-PD) (Homo sapiens, UniProt P09237).
T1 construct: His tag; pET32a(+) vector-encoded fusion part (thioredoxin/S-tag by own knowledge of the vector); made in house
T1 sequence (P09237 18-94 limits assumed): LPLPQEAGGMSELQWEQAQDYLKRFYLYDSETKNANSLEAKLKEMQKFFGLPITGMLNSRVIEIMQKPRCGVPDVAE
The series can be described thus: In vitro binding (GST pulldown / anti-His immunoblot) with His-PD. Conditions: GST-tagged proteins. From the text:
Figure 1 The N-terminus of syndecan-2 interacts with the pro-domain of MMP-7. (A) Schematic representation of the syndecan-2 core protein (SDC2) and MMP-7. The signal peptide (SP), the extracellular domain (EC), the transmembrane domain (TM), and the cytoplasmic domain (CT) of syndecan-2 are noted, and the various deletion mutants are indicated. A peptide corresponding to residues 41–60 of the syndecan-2 extracellular domain (S2-P) was synthesized. Syndecan-2 is labeled with amino acid numbers to show the location of each deletion (left). Schematic representation of MMP-7. The pre-domain (Pre), pro-domain (PD), and catalytic domain are shown (right top). Purified GST-SDC2 mutants and the His-tagged pro-domain of MMP-7 were separated by 15% SDS-PAGE and stained with Coomassie Blue (right bottom). (B) Purified GST or GST-SDC2 mutants were incubated with His-tagged pro-domain of MMP-7 (His-PD). Bound materials were subjected to immunoblotting with an anti-His tag antibody (top). The membranes were then stripped and re-probed with an anti-GST antibody (bottom). (C) Purified GST-SDC2 was incubated with purified His-PD MMP-7 plus the indicated amounts of S2-P for 2 h at 4 °C. Bound materials were subjected to immunoblotting with an anti-His tag antibody (top). […] (D) Fluorescence spectroscopy indicates the binding affinity between His-PD and S2-P peptide. […]

Series [5] concerns His-tagged ΔNC MMP-7 pro-domain. The series can be described thus: In vitro binding of GST-SDC2 mutants to His-ΔNC. Set-up: species or system human. As to conditions: 2 h at 4 °C, immunoblot. As to the method:
Figure 2 The pro-domain of MMP-7 is involved in its interaction with the syndecan-2 extracellular domain. (A) Schematic representations of the pro-domain of MMP-7 (PD) and the deletion mutants lacking the pro-domain, N-terminus (ΔN), C-terminus (ΔC) and both N- and C-terminus (ΔNC) (top). His-tagged MMP-7 pro-domain was purified with Ni-NTA agarose beads, separated by SDS-PAGE and stained with Coomassie Blue (bottom). (B) Purified GST-S2E, S2E-C and S2E-NII were incubated with His-tagged PD, or ΔN, ΔC or ΔNC MMP-7 pro-domain. Materials bound to glutathione-agarose beads were immunoblotted with an anti-His tag antibody (top). The membranes were then stripped and re-probed with an anti-GST antibody (bottom). (C) ELISA plates coated with 600 ng of S2-P were incubated with the indicated His-tagged MMP-7 pro-domains (500 ng/well) for 2 h at 20 °C. The plates were washed, incubated with an anti-His tag antibody followed by IgG-HRP, and developed with TMB-ELISA. Absorbance was measured at 450 nm. Data are shown as mean ± S.D. (n = 3), *p < 0.05 versus blank. (D) Purified GST-SDC2 was mixed with His-tagged ΔNC for 2 h at 4 °C., separated by SDS-PAGE, and immunoblotted with anti-His or -GST antibodies. (E) The secondary structures of the MMP-7 pro-domain mutants of ΔN, ΔC and ΔNC were diluted to 50 μM in a buffer consisting of 10 mM HEPES and 20 mM NaCl, pH 8, and kept at 20 °C. […]

Series [6] concerns His-tagged α2–3 helix of the MMP-7 pro-domain. The series can be described thus: In vitro binding of GST-SDC2 proteins to His-tagged α2–3. Set-up: species or system human. Conditions: 2 h at 4 °C, glutathione-agarose beads, immunoblot. As to the method:
as §1, with “data. […]” for “data.”

The target of series [7] is His-tagged pro-domain of MMP-7 (His-PD) (human, UniProt P09237 18-267, Limits are the UniProt activation peptide. Paper's NMR numbering + 24 = precursor numbering (Gln7=Q31, Glu32=E56, Gly48=G72, Ser52=S76). Deletion-construct numbering implies a PD of about 79 residues,). Kind of series: other fluorescence titration; tryptophan quenching; 15 uM His-PD, S2-P titrated up to 1:200 molar ratio; PBS pH 7.4, 298 K; excitation 280 nm, intensity at 347 nm. As to conditions: both partners purified.
Sequence of His-tagged pro-domain of MMP-7 (His-PD) (human, UniProt P09237 18-267, Limits are the UniProt activation peptide. Paper's NMR numbering + 24 = precursor numbering (Gln7=Q31, Glu32=E56, Gly48=G72, Ser52=S76). Deletion-construct numbering implies a PD of about 79 residues,) (P09237 18-267): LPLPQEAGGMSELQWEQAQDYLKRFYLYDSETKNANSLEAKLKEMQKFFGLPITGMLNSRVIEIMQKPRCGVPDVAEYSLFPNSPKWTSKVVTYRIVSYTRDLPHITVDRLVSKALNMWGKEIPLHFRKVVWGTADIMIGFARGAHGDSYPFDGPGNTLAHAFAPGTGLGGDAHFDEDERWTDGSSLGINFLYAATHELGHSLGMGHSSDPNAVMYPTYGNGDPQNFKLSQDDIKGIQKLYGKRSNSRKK

As usually defined, the Kd is the equilibrium constant for the complex coming apart.

For the molecule “α2–3: α2 helix-loop-α3 helix protein fragment of the MMP-7 pro-domain”, the “interaction with the N-terminus of the extracellular domain of syndecan-2 (pulldown, qualitative)” value in series [1] is “interacted with the N-terminus of the extracellular domain of syndecan-2”. Further, the “interaction with syndecan-2 (pulldown, qualitative)” value in series [2] is recorded as “interacted with syndecan-2, although to a slightly weaker degree than ΔNC; also recorded: interacted with recombinant syndecan-2 in vitro”. Also, the helicity in series [3] (CD, α-helical fraction from CDPro, without TFE) worked out at 75%. Besides, in series [3] (far-UV CD, pro-domain mutants at 50 μM, 10 mM HEPES, 20 mM NaCl, pH 8, 20 °C (Fig. 2E), α2–3 in Fig. 4C), the “secondary structure by CD (qualitative)” value was “had a helical structure, as suggested by the presence of minima (negative peaks) at 208 and 222 nm”.

B1: S2E: GST-tagged syndecan-2 extracellular domain (protein)
chain: ESRAELTSDKDMYLDNSSIEEASGVYPIDDDDYASASGSGADEDVESPELTTSRPLPKILLTSAAPKVETTTLNIQNKIPAQTKSPEETDKEKVHLSDSERKMDPAEEDTNVYTEKHSDSLFKRTE
modifications: left off: GST, end not stated, kept
notes: GST-tagged syndecan-2 extracellular domain
Regarding B1, the “interaction with His-PD (pulldown, qualitative)” value in series [4] is on record as “interacted with the pro-domain of MMP-7”.

B2: D49A: substitution of Asp49 with Ala in the syndecan-2 extracellular domain (protein)
chain: B1 chain with D31A
modifications: left off: GST, end not stated, kept
notes: substitution of Asp49 with Ala in the syndecan-2 extracellular domain
As for B2, the “interaction with His-tagged ΔNC (pulldown, qualitative)” value in series [5] is “did not affect its interaction”.

B3: Y51A: substitution of Tyr51 with Ala in the syndecan-2 extracellular domain (protein)
chain: B1 chain with Y33A
modifications: left off: GST, end not stated, kept
notes: substitution of Tyr51 with Ala in the syndecan-2 extracellular domain
B3: the “interaction with His-tagged ΔNC (pulldown, qualitative)” value in series [5] was “significantly reduced the interaction”. Further, the “interaction with α2–3 (pulldown, qualitative)” value in series [6] was “failed to interact with the α2–3”.

B4: recombinant syndecan-2: Purified GST-SDC2 (protein, UniProt P34741 19-201, looked up)
Syndecan-2: ESRAELTSDKDMYLDNSSIEEASGVYPIDDDDYASASGSGADEDVESPELTTSRPLPKILLTSAAPKVETTTLNIQNKIPAQTKSPEETDKEKVHLSDSERKMDPAEEDTNVYTEKHSDSLFKRTEVLAAVIAGGVIGFLFAIFLILLLVYRMRKKDEGSYDLGERKPSSAAYQKAPTKEFYA
modifications: GST tag
notes: Purified GST-SDC2
In the case of B4, the “interaction with α2–3 (pulldown, qualitative)” value in series [6] is given as “interacted with the α2–3”.

B5: synthetic human syndecan-2 peptide (S2-P), extracellular domain residues 41-60 (peptide)
peptide: SGVYPIDDDDYASASGSGAD
notes: human syndecan-2 extracellular domain residues 41-60; also called S2-P peptide; source: synthetic peptide (Fmoc solid-phase, Anygen Inc.)
Consider B5, for which the Kd in series [7] was determined as 1.586 ± 0.012 mM.
